# From patent JP2005027671A (dated 2005)
# Substitutions are numbered along the chain they refer to.
# B1: 抗ヒトVEGF受容体Flt-1マウスモノクローナル抗体KM1750 (antibody, V domains shown)
# VH: QAFLQQSGAELVRPGASVKMSCKASGYTFINYNMHWVKQTPRQGLEWIGAIFPGNGFTSYNQKFKGKATLTVDKSSSTVYMQLRSLTSEDSAVYFCARDGDYYFDYWGQGTTLTVSS
# VL: QIVLTQSPAIMSASLGEEITLTCSASSSVSYMHWYQQKSGTSPKLLIYRTSNLASGVPFRFSGSGSGTFYSLTISSVEAEDAADYYCHQWSMYTFGGGTKLEIK
# notes: cDNAs were cloned with mouse Cgamma1 and Ckappa probes; also called FERM BP-5700
# B2: 抗ヒトVEGF受容体Flt-1マウスモノクローナル抗体KM1732 (antibody, V domains shown)
# VH: QGQMQQSGAELVKPGASVKLSCKPSGFTFSSNYISWLKQKPGQSLEWIAWIYAGTGDASYNQKFTAKAHVTVDTSSSTAYMQLSSLTTEDSAIYYCARHGGDGYWFAYWGQGTLVTVSA
# VL: QLVLTQSPAIMSASQGEKVTMTCSASSSVSYMHWYQQKSGTSPKRWIYDTSKLPSGVPARFSGSGSGTSYSLTISSMEAEDAATYYCQQWSSNPPTFGAGTKLELK
# notes: Mouse hybridoma IgG (Balb/c mouse immunised with Flt-1 7N, screened on Flt-1 3N); cDNAs were cloned with mouse Cgamma1 and Ckappa probes; also called FERM BP-5698
# B3: 抗ヒトVEGF受容体Flt-1ヒト型キメラ抗体KM2532 (antibody, V domains shown)
# VH: B2 VH
# VL: B2 VL
# notes: Expressed in YB2/0 cells; also called pKANTEX1732
# B4: 抗ヒトVEGF受容体Flt-1ヒト型キメラ抗体KM2550 (antibody, V domains shown)
# VH: B1 VH
# VL: B1 VL
# notes: Expressed in YB2/0 cells; also called pKANTEX1750
# B5: 抗ヒトVEGF受容体Flt-1ヒト型CDR移植抗体KM8550 (antibody, V domains shown)
# VH: QVQLVQSGAEVKKPGASVKVSCKASGYTFINYNMHWVRQAPGQGLEWMGAIFPGNGFTSYNQKFKGRVTITVDKSTSTAYMELSSLRSEDTAVYYCARDGDYYFDYWGQGTLVTVSS
# VL: DIQMTQSPSSLSASVGDRVTITCSASSSVSYMHWYQQKPGKAPKLLIYRTSNLASGVPSRFSGSGSGTDFTLTISSLQPEDFATYYCHQWSMYTFGQGTKVEIK
# notes: CDR-grafted IgG derived from KM1750; also called pKANTEX1750HV0LV0(I); 1750HV0 + 1750LV0(I)
# B6: 抗ヒトVEGF受容体Flt-1ヒト型CDR移植抗体KM8552 (antibody, V domains shown)
# VH: B5 VH with E82Q, S84R, Y95F
# VL: B5 VL
# notes: CDR-grafted IgG derived from KM1750 with modified VH framework; also called pKANTEX1750HV3LV0(I); 1750HV3 + 1750LV0(I)
# B7: 抗ヒトVEGF受容体Flt-1ヒト型CDR移植抗体KM8554 (antibody, V domains shown)
# VH: B5 VH
# VL: B5 VL with D17E, R18E, D69F, F70Y
# notes: CDR-grafted IgG derived from KM1750 with modified VL framework; also called pKANTEX1750HV0LV4; 1750HV0 + 1750LV4
# B8: 抗ヒトVEGF受容体Flt-1ヒト型CDR移植抗体KM8555 (antibody, V domains shown)
# VH: B5 VH with E82Q, S84R, Y95F
# VL: B5 VL with D17E, R18E, D69F, F70Y
# notes: CDR-grafted IgG derived from KM1750 with modified VH and VL frameworks; also called pKANTEX1750HV3LV4; 1750HV3 + 1750LV4
# B9: 抗ヒトVEGF受容体Flt-1ヒト型CDR移植抗体KM8551 (antibody, V domains shown)
# VH: B5 VH
# VL: DIVMTQSPDSLAVSLGERATINCSASSSVSYMHWYQQKPGQPPKLLIYRTSNLASGVPDRFSGSGSGTDFTLTISSLQAEDVAVYYCHQWSMYTFGQGTKVEIK
# notes: CDR-grafted IgG derived from KM1750; also called pKANTEX1750HV0LV0(IV); 1750HV0 + 1750LV0(IV)
# B10: 抗ヒトVEGF受容体Flt-1ヒト型CDR移植抗体KM8553 (antibody, V domains shown)
# VH: B5 VH with E82Q, S84R, Y95F
# VL: B9 VL
# notes: CDR-grafted IgG derived from KM1750 with modified VH framework; also called pKANTEX1750HV3LV0(IV); 1750HV3 + 1750LV0(IV)
# Legend:
# 可溶性ヒトVEGF受容体Flt-1 7N = target: T1, 可溶性ヒトVEGF受容体Flt-1 7N (human, UniProt P17948 27-750); assay: inhibition of 125I-VEGF binding to coated Flt-1 7N, purified antibody
# T1 construct: range 1-750; also called 可溶性ヒトFlt-1 7N
# ヒトVEGF受容体Flt-1(細胞表面発現) = target: T2, ヒトVEGF受容体Flt-1(細胞表面発現) (human, UniProt P17948 27-1338); assay: inhibition of 125I-VEGF binding to NIH3T3-Flt-1 cells, purified antibody
# T2 construct: whole, on cells; also called NIH3T3-Flt-1細胞; ヒトVEGF受容体Flt-1発現NIH3T3細胞
# 可溶性ヒトVEGF受容体KDR 7N [1] = target: T3, 可溶性ヒトVEGF受容体KDR 7N (human, UniProt P35968 20-757); assay: ELISA, coated antigen 4 ug/ml
# T3 construct: range 1-738; The range 1-738 counts on the mature protein (after the 19-residue signal peptide)
# 可溶性ヒトVEGF受容体KDR 7N [2] = target: T3, 可溶性ヒトVEGF受容体KDR 7N; assay: ELISA, coated antigen 4 ug/ml, antibody titrated
# 可溶性ヒトVEGF受容体KDR 7N [3] = target: T3, 可溶性ヒトVEGF受容体KDR 7N; assay: ELISA, coated antigen from 10 ug/ml in 3-fold dilutions
# T3 sequence (P35968 20-757): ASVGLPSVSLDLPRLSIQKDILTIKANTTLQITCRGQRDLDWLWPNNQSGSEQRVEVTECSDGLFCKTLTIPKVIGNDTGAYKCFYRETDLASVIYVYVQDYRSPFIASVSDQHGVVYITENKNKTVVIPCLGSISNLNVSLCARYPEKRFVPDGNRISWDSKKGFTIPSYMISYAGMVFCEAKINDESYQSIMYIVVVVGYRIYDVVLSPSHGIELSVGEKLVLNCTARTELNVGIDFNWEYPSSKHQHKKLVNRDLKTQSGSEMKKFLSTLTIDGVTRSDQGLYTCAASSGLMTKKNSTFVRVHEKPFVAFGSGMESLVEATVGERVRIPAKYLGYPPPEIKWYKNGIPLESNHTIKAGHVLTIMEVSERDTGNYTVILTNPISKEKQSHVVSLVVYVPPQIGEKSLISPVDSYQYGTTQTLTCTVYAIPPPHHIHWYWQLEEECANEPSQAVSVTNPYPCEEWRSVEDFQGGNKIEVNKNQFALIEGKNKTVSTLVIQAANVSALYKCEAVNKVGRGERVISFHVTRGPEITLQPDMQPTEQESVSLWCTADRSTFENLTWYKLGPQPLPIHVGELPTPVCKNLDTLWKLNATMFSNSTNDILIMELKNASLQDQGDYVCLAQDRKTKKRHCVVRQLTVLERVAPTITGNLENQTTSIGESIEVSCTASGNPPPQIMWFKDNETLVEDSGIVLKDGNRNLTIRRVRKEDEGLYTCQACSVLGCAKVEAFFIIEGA
binder,measurement,setting,value
B1,IC50,可溶性ヒトVEGF受容体Flt-1 7N,2 µg/mL
same,IC50,ヒトVEGF受容体Flt-1(細胞表面発現),0.041 µg/mL
same,binding result,可溶性ヒトVEGF受容体KDR 7N [1],no binding (tested: 0.1μg/ml)
B2,IC50,可溶性ヒトVEGF受容体Flt-1 7N,1.1 µg/mL
same,IC50,ヒトVEGF受容体Flt-1(細胞表面発現),0.05 µg/mL
same,binding result,可溶性ヒトVEGF受容体KDR 7N [1],no binding (tested: 0.1μg/ml)
B3,binding result,可溶性ヒトVEGF受容体KDR 7N [2],no binding (tested: 0.0152〜100ng/ml)
B4,binding result,可溶性ヒトVEGF受容体KDR 7N [2],no binding (tested: 0.0152〜100ng/ml)
B5,binding result,可溶性ヒトVEGF受容体KDR 7N [3],no binding (tested: 5μg/ml)
B6,binding result,可溶性ヒトVEGF受容体KDR 7N [3],no binding (tested: 5μg/ml)
B7,binding result,可溶性ヒトVEGF受容体KDR 7N [3],no binding (tested: 5μg/ml)
B8,binding result,可溶性ヒトVEGF受容体KDR 7N [3],no binding (tested: 5μg/ml)
B9,binding result,可溶性ヒトVEGF受容体KDR 7N [3],no binding (tested: 5μg/ml)
B10,binding result,可溶性ヒトVEGF受容体KDR 7N [3],no binding (tested: 5μg/ml)
